The values that follow come from article PMC7760575, “TORC2-Dependent Ypk1-Mediated Phosphorylation of Lam2/Ltc4 Disrupts Its Association with the β-Propeller Protein Laf1 at Endoplasmic Reticulum-Plasma Membrane Contact Sites in the Yeast Saccharomyces cerevisiae” (Biomolecules, 2020).

The target in one assay is T1, GST-Laf1 (S. cerevisiae, UniProt Q03177 1-834).
T1 construct: Laf1/Ymr102c, S. cerevisiae, WD40 repeat protein; plasmid described only as pGEX4T-1 Laf1, no limits stated; Probably the whole open reading frame (surmised); also called Ymr102c; Lam2/Ltc4-Associated Factor 1; source: E. coli BL21(DE3), purified (glutathione beads); not shown: GST, N-terminal, kept
T1 sequence (looked up): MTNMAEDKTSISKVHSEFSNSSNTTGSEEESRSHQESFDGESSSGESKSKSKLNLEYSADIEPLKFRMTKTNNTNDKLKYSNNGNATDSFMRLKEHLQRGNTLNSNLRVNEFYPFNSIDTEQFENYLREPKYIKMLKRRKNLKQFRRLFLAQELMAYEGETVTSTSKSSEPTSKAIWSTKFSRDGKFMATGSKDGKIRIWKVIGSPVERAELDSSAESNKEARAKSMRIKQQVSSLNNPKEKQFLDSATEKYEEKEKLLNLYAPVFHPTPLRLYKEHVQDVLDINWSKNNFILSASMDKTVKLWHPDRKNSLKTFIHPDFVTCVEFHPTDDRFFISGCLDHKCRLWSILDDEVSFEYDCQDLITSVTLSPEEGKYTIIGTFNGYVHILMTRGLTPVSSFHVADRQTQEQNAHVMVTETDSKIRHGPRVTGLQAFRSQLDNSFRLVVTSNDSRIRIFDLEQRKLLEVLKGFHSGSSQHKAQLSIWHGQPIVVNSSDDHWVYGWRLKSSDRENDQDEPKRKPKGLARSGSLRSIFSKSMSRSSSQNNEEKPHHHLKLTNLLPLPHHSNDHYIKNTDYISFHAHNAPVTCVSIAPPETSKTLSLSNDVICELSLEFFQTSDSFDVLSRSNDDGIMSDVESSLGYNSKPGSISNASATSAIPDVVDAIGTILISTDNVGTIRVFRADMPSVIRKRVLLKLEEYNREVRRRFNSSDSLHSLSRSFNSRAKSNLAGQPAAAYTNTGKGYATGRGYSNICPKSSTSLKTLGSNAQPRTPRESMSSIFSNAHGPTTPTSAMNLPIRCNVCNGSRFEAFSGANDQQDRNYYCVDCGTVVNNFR
As to the kind of experiment: pull-down; GST fusion (bait) and His6-tagged Lam fragment incubated 1 h at 4 °C, complexes on glutathione-agarose beads; binding buffer 81 mM NaCl, 4.5 mM KCl, 1.35 mM MgCl2, 0.09% Triton X-100, 0.1 mg/mL BSA, 20 mM HEPES pH 7.5; four washes; immunoblot (anti-His, anti-GST). The settings on record: both partners purified. (A western blot detects proteins with antibodies after separation by electrophoresis.)

A further assay concerns the target T2, GST-Dgr2 (S. cerevisiae, UniProt P32330 1-852).
T2 construct: Dgr2/Ykl121w, S. cerevisiae, WD40 repeat protein, paralog of Laf1; plasmid described only as pGEX4T-1 Dgr2, no limits stated; Probably the whole open reading frame (surmised); also called Ykl121w; pFR404; source: E. coli BL21(DE3), purified (glutathione beads); not shown: GST, N-terminal, kept
T2 sequence (looked up): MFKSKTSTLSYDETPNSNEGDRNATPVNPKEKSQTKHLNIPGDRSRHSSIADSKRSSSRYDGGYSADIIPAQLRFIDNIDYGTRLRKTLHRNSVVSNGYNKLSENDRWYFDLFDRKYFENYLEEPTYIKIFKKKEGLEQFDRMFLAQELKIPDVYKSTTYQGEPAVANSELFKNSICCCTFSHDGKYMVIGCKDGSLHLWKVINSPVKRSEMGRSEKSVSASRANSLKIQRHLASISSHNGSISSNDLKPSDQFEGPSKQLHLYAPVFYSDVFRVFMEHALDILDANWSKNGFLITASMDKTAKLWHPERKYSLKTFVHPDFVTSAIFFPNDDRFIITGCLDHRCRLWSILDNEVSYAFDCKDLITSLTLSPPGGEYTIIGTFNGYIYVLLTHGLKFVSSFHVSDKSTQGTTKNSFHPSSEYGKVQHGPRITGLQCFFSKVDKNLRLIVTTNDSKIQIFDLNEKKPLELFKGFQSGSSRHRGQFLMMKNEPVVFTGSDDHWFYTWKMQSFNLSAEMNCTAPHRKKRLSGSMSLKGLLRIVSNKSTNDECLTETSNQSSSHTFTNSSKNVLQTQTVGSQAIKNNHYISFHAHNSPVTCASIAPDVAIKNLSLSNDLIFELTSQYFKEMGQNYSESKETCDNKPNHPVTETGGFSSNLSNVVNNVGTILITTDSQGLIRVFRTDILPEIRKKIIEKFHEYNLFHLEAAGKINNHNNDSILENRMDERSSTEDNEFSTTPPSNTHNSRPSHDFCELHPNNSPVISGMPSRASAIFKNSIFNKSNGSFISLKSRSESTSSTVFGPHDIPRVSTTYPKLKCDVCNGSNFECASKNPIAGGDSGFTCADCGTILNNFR
The assay is described as above. Conditions: both partners purified.

Numbering of substitutions follows the chain as printed. In names and notes the source's numbering stands.

B1: Lam2(849–1259)-(His)6 (domain or fragment, S. cerevisiae, UniProt Q06681 849-1259, looked up)
chain: SNNDHLVIEANINAPLGKVVNLLYGEDVSYYERILKAQKNFEISPIPNNFLTKKIRDYAYTKPLSGSIGPSKTKCLITDTLEHYDLEDYVKVLSITKNPDVPSGNIFSVKTVFLFSWDKNNSTKLTVYNSVDWTGKSWIKSMIEKGTFDGVADTTKIMISEIKKILSDEDSNINSKHQASNNESEEEIINLPTIGPPVHDPTEPDFQKGKDDTVIDEKINIPVPLGTVFSLLYGDDTSYIKKIIENQNNFNVCDIPKFVNNAREITYTKKLNNSFGPKQTKCIVTETIEHMDLNSFFMVKQIVRSPDVPYGSSFSVHTRFFYSWGDHNTTNMKVVTNVVWTGKSMLKGTIEKGSIDGQRSSTKQLVDDLKKIISNASSTKKKSRRRGKTVNKRKSSPSTIKNEKNEENFED
notes: tandem StARkin domains, PH domain removed; also called pFR409; source: E. coli BL21(DE3), purified (glutathione beads, cut off with TEV protease); not shown: GST, N-terminal, cleaved; His6, C-terminal, kept
As to B1, the binding result with GST-Laf1 is “binds”.

B2: Lam4(371–1177)-(His)6 (domain or fragment, S. cerevisiae, UniProt P38800 371-1177, looked up)
chain: SNLERKTVPSKWSVVSSSTTDGVKPRRRAKSMISAMADKQNTSSDVLQDCKKRLSFNSSNGLTNNDPEYEDREPREMSKKFLNRRSFSPGSISMGMKVLPSTALKYSLNKVKNSTDIASTIIPRPSMSNGRPSSGLRRSSSKSFSSTPVNIIEPSEENGRQSSIRIKGVEYASEKKDAEFHAIFKDSGVSPNERLILDHSCALSRDILLQGRMYISDQHIGFYSNILGWVSTVFIPFKTIVQIEKRATAGIFPNGIVIDTLHTKYTFASFTSRDATYDLITEVWNQIILGKRFRSNSNNTNSSSNSISDDENDDYDDDYDDYGDDDDDLYDNSNNISDSTDMTSSVSIGKPEDLPMPLQTDTPYGTGIPPLGPKIHSPTETVYKPAPNEKLVNESTIHASLGRVVNILFGKDVSYIMAILKAQKNSDISPIPVLVDSPTVSEGKKRDYSYVKTTPGAIGPGKTKCMITETIQHFNLEEYVQVLQTTKTPDVPSGNSFYVRTVYLLSWANNNETKLKLYVSVEWTGKSLIKSPIEKGTFDGVTDATKILVEELGNILTRSATKRKRSSKENTVTVSTLPKMEPSSHAPTEPDIQKDKDDSIIRENENIPAPLGTVVQLLFGSNTEYMQKVITRDKNNVNVETIPKFTPSLVEGGSRHYEYTKKLNNSIGPKQTKCLLTESIEHMDINNYVLVTQTTKTPDVPSGSNFAVESKIFLFWGQHDTTNMTVITKINWTSKSFLKGAIEKGSVEGQKVSVDYMLSELRDIISRAKSKKPVKKVMKSHDKHRPFHSKVEQKSSESRKSDDNKDI
notes: also called Lam4/Ltc3 fragment; pFR407; source: E. coli BL21(DE3), purified (glutathione beads, cut off with TEV protease); not shown: GST, N-terminal, cleaved; His6, C-terminal, kept
As to B2, the binding result in the assay with GST-Dgr2 and in the assay with GST-Laf1 was “binds” throughout.

B3: Lam2(482–1259; ∆644–760)-(His)6 (domain or fragment, S. cerevisiae, UniProt Q06681 482-1259, looked up)
chain: LGPKELNTSYRNSTYIDMARFENSQSNLSSHRARSKTLPANKALENAVGDEGNSKRNSRYSSYSNDMAFDDADERKFRSMSKKFLNRRSFSPSNLGNKVIPGINLRNSFNKNRNSSSDFFSTNQGQQMPRTSTAGSGNIHAIMGLDSGNDDFKLEGIEYASEKYRNGFGNNDDGTISDSSSAFFDDSDDNDDDGDLDDDDPDINSTDMTSSDDIDADVFNESNDLGKNQKSTNYLLGPNKHSPTTADFKPSNNDHLVIEANINAPLGKVVNLLYGEDVSYYERILKAQKNFEISPIPNNFLTKKIRDYAYTKPLSGSIGPSKTKCLITDTLEHYDLEDYVKVLSITKNPDVPSGNIFSVKTVFLFSWDKNNSTKLTVYNSVDWTGKSWIKSMIEKGTFDGVADTTKIMISEIKKILSDEDSNINSKHQASNNESEEEIINLPTIGPPVHDPTEPDFQKGKDDTVIDEKINIPVPLGTVFSLLYGDDTSYIKKIIENQNNFNVCDIPKFVNNAREITYTKKLNNSFGPKQTKCIVTETIEHMDLNSFFMVKQIVRSPDVPYGSSFSVHTRFFYSWGDHNTTNMKVVTNVVWTGKSMLKGTIEKGSIDGQRSSTKQLVDDLKKIISNASSTKKKSRRRGKTVNKRKSSPSTIKNEKNEENFED
notes: also called ∆PH; source: E. coli BL21(DE3), purified (glutathione beads, cut off with TEV protease); not shown: GST, N-terminal, cleaved; His6, C-terminal, kept
Take B3: the binding result with GST-Laf1 is listed as “binds”.

B4: Lam2(482–1259)-(His)6 (domain or fragment, S. cerevisiae, UniProt Q06681 482-1259, looked up)
chain: LGPKELNTSYRNSTYIDMARFENSQSNLSSHRARSKTLPANKALENAVGDEGNSKRNSRYSSYSNDMAFDDADERKFRSMSKKFLNRRSFSPSNLGNKVIPGINLRNSFNKNRNSSSDFFSTNQGQQMPRTSTAGSGNIHAIMGLDSGNDDFKLEGIEYASEKKNSEFHTLFKDCDINPNEKLIVDHSCALSRDILLQGRMYISDAHIGFFSNILGWVSTVFIPFKEIVQIEKKTTAGIFPNGIVIDTLHTKYIFASFMSRDATFDLITDVWNQIILGKKYRNGFGNNDDGTISDSSSAFFDDSDDNDDDGDLDDDDPDINSTDMTSSDDIDADVFNESNDLGKNQKSTNYLLGPNKHSPTTADFKPSNNDHLVIEANINAPLGKVVNLLYGEDVSYYERILKAQKNFEISPIPNNFLTKKIRDYAYTKPLSGSIGPSKTKCLITDTLEHYDLEDYVKVLSITKNPDVPSGNIFSVKTVFLFSWDKNNSTKLTVYNSVDWTGKSWIKSMIEKGTFDGVADTTKIMISEIKKILSDEDSNINSKHQASNNESEEEIINLPTIGPPVHDPTEPDFQKGKDDTVIDEKINIPVPLGTVFSLLYGDDTSYIKKIIENQNNFNVCDIPKFVNNAREITYTKKLNNSFGPKQTKCIVTETIEHMDLNSFFMVKQIVRSPDVPYGSSFSVHTRFFYSWGDHNTTNMKVVTNVVWTGKSMLKGTIEKGSIDGQRSSTKQLVDDLKKIISNASSTKKKSRRRGKTVNKRKSSPSTIKNEKNEENFED
notes: also called Lam2/Ltc4/Ysp2 fragment; pFR391; source: E. coli BL21(DE3), purified (glutathione beads, cut off with TEV protease); not shown: GST, N-terminal, cleaved; His6, C-terminal, kept
Regarding B4, the binding result with GST-Dgr2 and with GST-Laf1 was “binds” throughout.

B5: Lam2(482-1259; T518A L519A T1237A V1238A)-(His)6 (domain or fragment, S. cerevisiae, UniProt Q06681 482-1259, looked up)
chain: B4 chain with T37A, L38A, T756A, V757A
notes: also called pFR411; source: E. coli BL21(DE3), purified (glutathione beads, cut off with PreScission protease); not shown: GST, N-terminal, cleaved; His6, C-terminal, kept
As for B5, the binding result with GST-Laf1 is given as “binds”.
